Results taken from patent publication US10117916B2, “Peptides and combination of peptides for use in immunotherapy against CLL and other cancers” (immatics biotechnologies GmbH, priority 2015, dated 2018).

Each substance was assayed against HLA-A*02:01 (Homo sapiens, UniProt P04439, D140Y/D185E/D98H/E176V/E277Q/G131W/G231S/I119V/I121R/I166T/I218V/L300P/L318F/N151K/N90K/P208A/P217A/Q86G/Q94H/R138H/R169H/T345S) (assay: MHC binding assay: UV-ligand exchange with β2m ELISA (peptide exchange yield)). Details: MHC class I binding score; binding to HLA-A*02:01 ranged by peptide exchange yield (UV-ligand exchange, β2m ELISA).
Method in brief: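 UV-exchange pMHC monomers, 100-fold diluted → streptavidin capture 1 h 37 °C → HRP anti-β2m 2 ug/ml 1 h 37 °C → TMB, A450. Yield from HLA-A*02:01/MLA-001 monomer standard curve, 15-500 ng/ml. Only stably bound peptides keep β2m-containing complexes intact.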
In the case of “228 (FLGGLSPGV; listed as Homo sapiens) [compound 228]”, the “Peptide Exchange” value is reported as “″+++″ (≥50 = +++)”. “229 (FLLNLQNCHL; listed as Homo sapiens) [compound 229]” was tested, and the “Peptide Exchange” value was “″++++″ (≥75% = ++++)”. For “230 (FLQDSKVIFV; listed as Homo sapiens) [compound 230]”, the “Peptide Exchange” value was “″+++″ (≥50 = +++)”. “231 (FLYIRQLAI; listed as Homo sapiens) [compound 231]” was tested, and the “Peptide Exchange” value was “″+++″ (≥50 = +++)”. For “232 (FMHQIIDQV; listed as Homo sapiens) [compound 232]”, the “Peptide Exchange” value was “″++++″ (≥75% = ++++)”. For “233 (GIIDINVRL; listed as Homo sapiens) [compound 233]”, the “Peptide Exchange” value was “″++″ (≥20% = ++)”. With “234 (GLDDAEYAL; listed as Homo sapiens) [compound 234]” the “Peptide Exchange” value was “″++″ (≥20% = ++)”. In the case of “235 (GLDDLLLFL; listed as Homo sapiens) [compound 235]”, the “Peptide Exchange” value is reported as “″+++″ (≥50 = +++)”. For “236 (GLLESGRHYL; listed as Homo sapiens) [compound 236]”, the “Peptide Exchange” value was “″+++″ (≥50 = +++)”. In the case of “237 (GLQENLDVVV; listed as Homo sapiens) [compound 237]”, the “Peptide Exchange” value is reported as “″++++″ (≥75% = ++++)”. “238 (GLVETELQL; listed as Homo sapiens) [compound 238]” was tested, and the “Peptide Exchange” value was “″+++″ (≥50 = +++)”. For “239 (ILAGEMLSV; listed as Homo sapiens) [compound 239]”, the “Peptide Exchange” value was “″+++″ (≥50 = +++)”. “241 (ILGDILLKV; listed as Homo sapiens) [compound 241]” was tested, and the “Peptide Exchange” value was “″+++″ (≥50 = +++)”. In the case of “242 (ILLGIQELL; listed as Homo sapiens) [compound 242]”, the “Peptide Exchange” value is reported as “″+++″ (≥50 = +++)”. With “243 (ILPTLEKELFL; listed as Homo sapiens) [compound 243]” the “Peptide Exchange” value was “″+++″ (≥50 = +++)”. With “244 (ILQALAVHL; listed as Homo sapiens) [compound 244]” the “Peptide Exchange” value was “″+++″ (≥50 = +++)”. “245 (KIMDYSLLLGV; listed as Homo sapiens) [compound 245]” was tested, and the “Peptide Exchange” value was “″++++″ (≥75% = ++++)”. “246 (KLDETGVAL; listed as Homo sapiens) [compound 246]” was tested, and the “Peptide Exchange” value was “″++″ (≥20% = ++)”. In the case of “247 (KLKDRLPSI; listed as Homo sapiens) [compound 247]”, the “Peptide Exchange” value is reported as “″++″ (≥20% = ++)”. In the case of “248 (KTVEPPISQV; listed as Homo sapiens) [compound 248]”, the “Peptide Exchange” value is reported as “″++″ (≥20% = ++)”. With “249 (LLPTGVFQV; listed as Homo sapiens) [compound 249]” the “Peptide Exchange” value was “″+++″ (≥50 = +++)”. “250 (LLVQEPDGLMV; listed as Homo sapiens) [compound 250]” was tested, and the “Peptide Exchange” value was “″+++″ (≥50 = +++)”. For “251 (LLYDNVPGA; listed as Homo sapiens) [compound 251]”, the “Peptide Exchange” value was “″+++″ (≥50 = +++)”. For “252 (NLLDPGSSYLL; listed as Homo sapiens) [compound 252]”, the “Peptide Exchange” value was “″+++″ (≥50 = +++)”. For “253 (NLWSVDGEVTV; listed as Homo sapiens) [compound 253]”, the “Peptide Exchange” value was “″+++″ (≥50 = +++)”. With “254 (QLIPKLIFL; listed as Homo sapiens) [compound 254]” the “Peptide Exchange” value was “″+++″ (≥50 = +++)”. For “255 (YLFEEAISM; listed as Homo sapiens) [compound 255]”, the “Peptide Exchange” value was “″+++″ (≥50 = +++)”. For “256 (QLLPVSNVVSV; listed as Homo sapiens) [compound 256]”, the “Peptide Exchange” value was “″+++″ (≥50 = +++)”. In the case of “258 (RLDYITAEI; listed as Homo sapiens) [compound 258]”, the “Peptide Exchange” value is reported as “″+++″ (≥50 = +++)”. In the case of “259 (RLLDEQFAVL; listed as Homo sapiens) [compound 259]”, the “Peptide Exchange” value is reported as “″+++″ (≥50 = +++)”. With “260 (SLDDVEGMSV; listed as Homo sapiens) [compound 260]” the “Peptide Exchange” value was “″+++″ (≥50 = +++)”. In the case of “261 (SLVEAQGWLV; listed as Homo sapiens) [compound 261]”, the “Peptide Exchange” value is reported as “″+++″ (≥50 = +++)”. For “262 (SLWNAGTSV; listed as Homo sapiens) [compound 262]”, the “Peptide Exchange” value was “″+++″ (≥50 = +++)”. In the case of “263 (SQWEDIHVV; listed as Homo sapiens) [compound 263]”, the “Peptide Exchange” value is reported as “″+++″ (≥50 = +++)”. With “264 (TILDYINVV; listed as Homo sapiens) [compound 264]” the “Peptide Exchange” value was “″+++″ (≥50 = +++)”. For “265 (TLLADDLEIKL; listed as Homo sapiens) [compound 265]”, the “Peptide Exchange” value was “″+++″ (≥50 = +++)”. “266 (TLLDQLDTQL; listed as Homo sapiens) [compound 266]” was tested, and the “Peptide Exchange” value was “″++″ (≥20% = ++)”. In the case of “267 (TLLDWQDSL; listed as Homo sapiens) [compound 267]”, the “Peptide Exchange” value is reported as “″+++″ (≥50 = +++)”. In the case of “268 (TLLQVFHLL; listed as Homo sapiens) [compound 268]”, the “Peptide Exchange” value is reported as “″+++″ (≥50 = +++)”. “269 (TLTDEQFLV; listed as Homo sapiens) [compound 269]” was tested, and the “Peptide Exchange” value was “″++″ (≥20% = ++)”. “270 (TVLPVPPLSV; listed as Homo sapiens) [compound 270]” was tested, and the “Peptide Exchange” value was “″+++″ (≥50 = +++)”. For “271 (VIRNIVEAA; listed as Homo sapiens) [compound 271]”, the “Peptide Exchange” value was “″++″ (≥20% = ++)”. In the case of “272 (VLDELPPLI; listed as Homo sapiens) [compound 272]”, the “Peptide Exchange” value is reported as “″+++″ (≥50 = +++)”. With “273 (VLGEYSYLL; listed as Homo sapiens) [compound 273]” the “Peptide Exchange” value was “″+++″ (≥50 = +++)”. With “274 (VLLEYHIAYL; listed as Homo sapiens) [compound 274]” the “Peptide Exchange” value was “″+++″ (≥50 = +++)”. For “275 (VLLFIEHSV; listed as Homo sapiens) [compound 275]”, the “Peptide Exchange” value was “″+++″ (≥50 = +++)”. In the case of “276 (VLNDGAPNV; listed as Homo sapiens) [compound 276]”, the “Peptide Exchange” value is reported as “″+++″ (≥50 = +++)”. In the case of “277 (VMILKLPFL; listed as Homo sapiens) [compound 277]”, the “Peptide Exchange” value is reported as “″++″ (≥20% = ++)”. With “278 (YLDDLLPKL; listed as Homo sapiens) [compound 278]” the “Peptide Exchange” value was “″+++″ (≥50 = +++)”. With “279 (YMAPEVVEA; listed as Homo sapiens) [compound 279]” the “Peptide Exchange” value was “″+++″ (≥50 = +++)”. For “280 (YTLDSLYWSV; listed as Homo sapiens) [compound 280]”, the “Peptide Exchange” value was “″+++″ (≥50 = +++)”. For “283 (ILQPMDIHV; listed as Homo sapiens) [compound 283]”, the “Peptide Exchange” value was “″+++″ (≥50 = +++)”. “284 (LLSAAEPVPA; listed as Homo sapiens) [compound 284]” was tested, and the “Peptide Exchange” value was “″++″ (≥20% = ++)”.
